# Test results published in patent publication US20170281792A1 (Genentech, published 2017).
# T1: gD epitope-tagged rat mesothelin expressed on cells (rat, UniProt Q9ERA7 298-582)
# T1 sequence: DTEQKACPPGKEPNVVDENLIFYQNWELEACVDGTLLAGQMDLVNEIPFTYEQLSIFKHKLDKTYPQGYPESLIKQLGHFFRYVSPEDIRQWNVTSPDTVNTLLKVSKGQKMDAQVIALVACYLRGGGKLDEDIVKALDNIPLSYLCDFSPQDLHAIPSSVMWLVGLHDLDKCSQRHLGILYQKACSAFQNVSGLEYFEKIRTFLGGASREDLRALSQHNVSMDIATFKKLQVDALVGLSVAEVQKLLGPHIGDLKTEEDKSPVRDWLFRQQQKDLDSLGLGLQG
# T2: gD epitope-tagged cynomolgus monkey mesothelin expressed on cells (construct #383) (cynomolgus monkey)
# T2 construct: also called cyno mesothelin
# T2 chain: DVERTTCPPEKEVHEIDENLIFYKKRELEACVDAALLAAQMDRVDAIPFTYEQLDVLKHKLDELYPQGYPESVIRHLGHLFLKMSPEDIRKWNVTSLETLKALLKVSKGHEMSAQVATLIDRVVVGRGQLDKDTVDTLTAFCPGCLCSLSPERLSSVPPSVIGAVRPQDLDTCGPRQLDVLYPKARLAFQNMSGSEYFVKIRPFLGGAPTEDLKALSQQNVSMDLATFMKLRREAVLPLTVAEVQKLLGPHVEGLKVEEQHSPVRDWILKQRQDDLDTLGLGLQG
# Assays:
# [1] = target: T3, E. coli derived recombinant human mesothelin (human, UniProt Q13421 296-580); test: Biacore-2000, IgG over immobilised E. coli derived human mesothelin, 1:1 fit
# T3 construct: not shown: N-terminal unizyme His (HQ)-tag
# Experimental: (§1) 7D9 variants were expressed as IgG by CHO transient transfection. IgG was purified with protein G affinity chromatography. The affinity of each 7D9 IgG variant for human mesothelin was determined by surface plasmon resonance using a BIACORE™-2000. BIACORE™ research grade CM5 chips were immobilized with approximately 110 RU of E. coli derived recombinant human mesothelin using the amine coupling kit from BIACORE™. […] Each sample was analyzed with 5-minute association and 3.5-minute dissociation. After each injection the chip was regenerated using 10 mM Glycine pH 1.7. Binding response was corrected by subtracting the RU from a flow cell with an irrelevant IgG immobilized at similar density. A 1:1 Languir model of simultaneous fitting of kₒₙ and koff was used for kinetics analysis.
# [2] = target: T3, E. coli derived recombinant human …; test: SPR (Biacore), IgG over immobilized E. coli derived human mesothelin
# Experimental: as §1
# The human acceptor framework used for humanization of 7D9 is based on the human VL kappa I consensus (VLKI) and the acceptor VH framework VHATA, which differs from the human VH subgroup III consensus (VHIII) at 3 positions: R71A, N73T, and L78A (Carter et al., Proc. Natl. Acad. Sci. USA 89:4285 (1992)). The VL and VH domains of murine 7D9 were aligned with the human VLKI and VHIII domains; hypervariable regions were identified and grafted into the human acceptor framework to generate 7D9.v1 (FIGS. 4 and 5).
# [3] = target: T1, gD epitope-tagged rat mesothelin …; test: Scatchard analysis on BJAB cells stably expressing gD-tagged rat mesothelin
# [4] = target: T2, gD epitope-tagged cynomolgus monkey …; test: Scatchard analysis on BJAB cells stably expressing gD-tagged cyno mesothelin
# T3 sequence (Q13421 other isoform, or with tags, fused parts or gaps): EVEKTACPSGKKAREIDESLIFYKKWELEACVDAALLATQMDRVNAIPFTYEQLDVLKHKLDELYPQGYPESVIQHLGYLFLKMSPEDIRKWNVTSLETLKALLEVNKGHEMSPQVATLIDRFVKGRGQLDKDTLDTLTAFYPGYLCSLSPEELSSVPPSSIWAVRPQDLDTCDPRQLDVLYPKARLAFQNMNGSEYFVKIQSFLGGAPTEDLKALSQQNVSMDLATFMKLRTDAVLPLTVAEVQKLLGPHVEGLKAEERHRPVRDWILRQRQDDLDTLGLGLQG
Binder,Kd [1] [nM],fold decrease in affinity relative to mu7D9 (chimeric 7D9) [2] [fold],Kd [3] [nM],Kd [4] [nM]
"7D9.v5 (antibody, V domains shown) VH: EVQLVESGGGLVQPGGSLRLSCAASGYTFTTYWMHWVRQAPGKGLEWVGYIRPSTGYTEYNQKFKDRFTISADTSKNTAYLQMNSLRAEDTAVYYCARSRWLLDYWGQGTLVTVS VL: DIQMTQSPSSLSASVGDRVTITCKSSQSVLYSSNQKNYLAWFQQKPGKAPKLLIYWASTRESGVPSRFSGSGSGTDFTLTISSLQPEDFATYYCHQYLSSYTFGQGTKVEIK",3.49,–,–,–
"7D9.v1 (antibody, V domains shown, also called direct-graft 7D9.v1) VH: EVQLVESGGGLVQPGGSLRLSCAASGYTFTTYWMHWVRQAPGKGLEWVGYIRPSTGYTEYNQKFKDRFTISADTSKNTAYLQMNSLRAEDTAVYYCARSRWLLDYWGQGTLVTVS VL: DIQMTQSPSSLSASVGDRVTITCKSSQSVLYSSNQKNYLAWYQQKPGKAPKLLIYWASTRESGVPSRFSGSGSGTDFTLTISSLQPEDFATYYCHQYLSSYTFGQGTKVEIK",3.98,~2,–,–
"7D9.v6 (antibody, V domains shown) VH: EVQLVESGGGLVQPGGSLRLSCAASGYTFTTYWMHWVRQAPGKGLEWVGYIRPSTGYTEYNQKFKDRFTISADTSKNTAYLQMNSLRAEDTAVYYCARSRWLLDYWGQGTLVTVS VL: DIQMTQSPSSLSASVGDRVTITCKSSQSVLYSSNQKNYLAWYQQKPGKAPKLLIYWASTRESGVPSRFSGSGSGTDFTLTISSLQPEDFATYFCHQYLSSYTFGQGTKVEIK",4.08,–,–,–
"chimeric 7D9 (antibody, V domains shown, also called ch7D9; mu7D9 (formatted as a chimeric 7D9)) VH: QVQLQQSGAELAKPGASVKMSCKASGYTFTTYWMHWVKQRPGQGLEWIGYIRPSTGYTEYNQKFKDKATLTADKSSSTAYMQLSSLTSEDSTVYYCARSRWLLDYWGQGTSLTVS VL: DIMMTQSPSSLAVSAGEKVTMSCKSSQSVLYSSNQKNYLAWFQQKPGQSPKLLIYWASTRESGVPDRFTGSGSGTDFTLTISSVQAEDLAVYFCHQYLSSYTFGGGTKVEIK",1.84,–,–,–
"22A10 graft (antibody, V domains shown, also called hu22A10graft; 22A10 CDR graft) VH: EVQLVESGGGLVQPGGSLRLSCAASGFTFSDYFMSWVRQAPGKGLEWVATISNGGTYTYYPDSVKGRFTISRDNSKNTLYLQMNSLRAEDTAVYYCARFDGYYFDYWGQGTLVTVSS VL: DIQMTQSPSSLSASVGDRVTITCRASQDISNYLNWYQQKPGKAPKLLIYYTSRLHSGVPSRFSGSGSGTDFTLTISSLQPEDFATYYCQQGNTLPYTFGQGTKVEIK",–,–,1.9,1
